From patent US20220034872

System: GST fusion recombinant OCT4 protein

Substance: GST fusion recombinant CSNK2A1
- in vitro kinase assay, OCT4 phosphorylation read by SDS-PAGE and western blotting: in the presence of OCT4 and CSNK2A1, OCT4 phosphorylation was recognized by a phosphorylated antibody
